# Literature values as cited in patent US5624831A, “Immobilized acetylcholinesterase stabilized by a film of gelatin or albumin containing trehalose” (priority 1994, dated 1997).
# B1: acetylcholinesterase extracted from the torpedo fish: acetylcholinesterase extracted from the torpedo fish (protein, UniProt P04058 22-564, looked up)
# Acetylcholinesterase: DDHSELLVNTKSGKVMGTRVPVLSSHISAFLGIPFAEPPVGNMRFRRPEPKKPWSGVWNASTYPNNCQQYVDEQFPGFSGSEMWNPNREMSEDCLYLNIWVPSPRPKSTTVMVWIYGGGFYSGSSTLDVYNGKYLAYTEEVVLVSLSYRVGAFGFLALHGSQEAPGNVGLLDQRMALQWVHDNIQFFGGDPKTVTIFGESAGGASVGMHILSPGSRDLFRRAILQSGSPNCPWASVSVAEGRRRAVELGRNLNCNLNSDEELIHCLREKKPQELIDVEWNVLPFDSIFRFSFVPVIDGEFFPTSLESMLNSGNFKKTQILLGVNKDEGSFFLLYGAPGFSKDSESKISREDFMSGVKLSVPHANDLGLDAVTLQYTDWMDDNNGIKNRDGLDDIVGDHNVICPLMHFVNKYTKFGNGTYLYFFNHRASNLVWPEWMGVIHGYEIEFVFGLPLVKELNYTAEEEALSRRIMHYWATFAKTGNPNEPHSQESKWPLFTTKEQKFIDLNTEPMKVHQRLRVQMCVFWNQFLPKLLNATACDGELSS
# Test system: acetylcholinesterase extracted from the torpedo fish
# Details: kept dry at 4° C. for longer than 7 days
molecule,measurement,value
B1,loss of enzymatic activity (in words),looses normally all its enzymatic activity
